Here are results for two molecules from patent US20250002610A1 (Genmab, published 2025).

The target of assay [1] is T1, human DR4 (Death Receptor 4), cell surface expressed on human tumor cell lines (human, UniProt O00220 24-468).
T1 construct: also called TNFRSF10A; TRAIL-R1
T1 sequence: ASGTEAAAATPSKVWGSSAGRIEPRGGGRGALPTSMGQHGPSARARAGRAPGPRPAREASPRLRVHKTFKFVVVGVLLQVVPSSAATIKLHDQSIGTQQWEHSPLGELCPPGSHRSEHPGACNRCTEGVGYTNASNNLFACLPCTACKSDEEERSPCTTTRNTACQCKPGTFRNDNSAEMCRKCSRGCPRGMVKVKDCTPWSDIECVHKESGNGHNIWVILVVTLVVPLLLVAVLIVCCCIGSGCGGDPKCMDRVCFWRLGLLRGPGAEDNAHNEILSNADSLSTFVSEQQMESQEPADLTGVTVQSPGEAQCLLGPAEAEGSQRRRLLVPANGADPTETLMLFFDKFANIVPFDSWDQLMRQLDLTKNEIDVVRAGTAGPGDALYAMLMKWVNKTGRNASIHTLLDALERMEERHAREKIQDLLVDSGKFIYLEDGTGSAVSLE
As to the kind of experiment: flow cytometry, A549 cells, n = 1. (Flow cytometry measures light scatter and fluorescence of single cells or particles in a stream.)

For assay [2], the target named is T1, human DR4 (Death Receptor 4), cell …. As to the kind of experiment: flow cytometry, HCT-116 cells, n = 2.
For assay [3] the target is unchanged. As to the kind of experiment: flow cytometry, HCT-116 cells, n = 3.
For assay [4] the target is unchanged. As to the kind of experiment: flow cytometry, MDA-MB-231 cells, n = 1.
Assay [5] shares this target. As to the kind of experiment: flow cytometry, A549 cells, average ± SEM.
For assay [6] the target is unchanged. As to the kind of experiment: flow cytometry, MDA-MB-231 cells, average ± SEM.
For assay [7] the target is unchanged. As to the kind of experiment: flow cytometry, MDA-MB-231 cells, average ± SEM. This is another data set of the same source.
Assay [8] addresses human DR4 with death domain deletion on ExpiCHO-S cells (human). As to the kind of experiment: flow cytometry, ExpiCHO-S cells expressing human DR4, average ± SEM.
Assay [9] addresses T2, human DR4HsECD-FcHisCtag (human).
T2 construct: also called recombinant human DR4
As to the kind of experiment: BLI (Octet), antigen captured on anti-Penta-HIS sensors, average of three experiments. On the procedure:
(§1) Experiments were carried out while shaking at 1,000 RPM at 30° C. Amine Reactive 2nd Generation (AR2G) biosensors (Sartorius, Cat #18-5092) were activated by reaction with 20 mM EDC (N-(3-Dimethylaminopropyl)-N′-ethylcarbodiimide hydrochloride) (Sigma-Aldrich, Cat #03449) and 10 mM s-NHS (N-hydroxysulfosuccinimide sodium salt) (Sigma-Aldrich, Cat #56485) for 300 s. The activated AR2G sensors were loaded with 2.5 μg/mL His-tagged recombinant Human FAPα (Acro Biosystems, Cat #FAP-H5244-100ug) in 10 mM Sodium Acetate pH 5.0 (Sartorius, Cat #18-1069) or 2.5 μg/mL His-tagged recombinant Cynomolgus FAPα (Acro Biosystems, Cat #FAP-C52H3-100ug) in 10 mM Sodium Acetate pH 5.0 for 600 s and quenched with 1 M ethanolamine pH 8.5 (Sartorius Cat #18-1071) for 300 s. After a baseline measurement in Sample Diluent (1000 s; Sartorius, Cat #18-1104), the association (100 s) and dissociation (4,000 s) of functionally monovalent antibody was determined using a concentration range of 0.78-800 nM with two-fold dilution steps in Sample Diluent. The molecular mass of the antibodies used for the calculations was calculated from the sequences.
(§2) The binding affinity of BisG1-FAPα-FERL/DR4-FERR, BisG1-b12-FERL/DR4-FERR and control BisG1-FAPα-FERL/b12-FERR to recombinant human and cynomolgus monkey DR4 protein was determined using label-free biolayer interferometry on an Octet HTX instrument (Sartorius).
(§3) The protocol detailed in Example 5 was used with the following differences: anti-Penta-HIS biosensors (Sartorius, Cat #18-5120) were used; the sensors were preconditioned by exposure to 10 mM glycine (Sigma-Aldrich, Cat #15527) buffer pH 1.5 for 5 s, followed by neutralization in Sample Diluent (Sartorius, Cat #18-1104) for 5 s; both steps were repeated 2 times; the sensors were loaded with 50 nM human DR4HsECD-FcHisCtag (SEQ ID NO: 66), or cynomolgus DR4MfECD-FcHisCtag (SEQ ID NO: 67), for 600 s; the dissociation time was 1,000 s; The window of interest for the dissociation time was set at 100 s for the cynomolgus antigen and at 1,000 s for the human antigen.
(In BLI a coated tip is dipped into the sample, and binding shifts an interference pattern.)

For assay [10], the target named is T3, cynomolgus DR4MfECD-FcHisCtag (cynomolgus monkey).
T3 construct: also called recombinant cynomolgus monkey DR4
T3 chain: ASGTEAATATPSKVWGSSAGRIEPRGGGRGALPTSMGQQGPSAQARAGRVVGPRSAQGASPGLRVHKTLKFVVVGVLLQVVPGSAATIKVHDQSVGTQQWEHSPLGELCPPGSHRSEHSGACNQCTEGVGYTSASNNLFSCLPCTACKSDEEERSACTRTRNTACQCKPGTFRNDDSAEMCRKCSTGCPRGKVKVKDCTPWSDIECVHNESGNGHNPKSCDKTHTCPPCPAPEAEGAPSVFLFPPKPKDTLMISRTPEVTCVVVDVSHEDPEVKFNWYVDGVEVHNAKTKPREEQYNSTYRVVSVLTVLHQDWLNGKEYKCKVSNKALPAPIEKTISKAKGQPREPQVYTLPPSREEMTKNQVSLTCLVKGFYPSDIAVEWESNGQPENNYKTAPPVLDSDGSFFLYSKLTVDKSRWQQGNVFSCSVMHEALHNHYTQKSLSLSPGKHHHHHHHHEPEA
The assay is described as above. On the procedure: as §1, §2, §3

The target in assay [11] is T1, human DR4 (Death Receptor 4), cell …. As to the kind of experiment: flow cytometry, MDA-MB-231 cells, n = 3.

T2 sequence (chain, as listed by the source limits assumed): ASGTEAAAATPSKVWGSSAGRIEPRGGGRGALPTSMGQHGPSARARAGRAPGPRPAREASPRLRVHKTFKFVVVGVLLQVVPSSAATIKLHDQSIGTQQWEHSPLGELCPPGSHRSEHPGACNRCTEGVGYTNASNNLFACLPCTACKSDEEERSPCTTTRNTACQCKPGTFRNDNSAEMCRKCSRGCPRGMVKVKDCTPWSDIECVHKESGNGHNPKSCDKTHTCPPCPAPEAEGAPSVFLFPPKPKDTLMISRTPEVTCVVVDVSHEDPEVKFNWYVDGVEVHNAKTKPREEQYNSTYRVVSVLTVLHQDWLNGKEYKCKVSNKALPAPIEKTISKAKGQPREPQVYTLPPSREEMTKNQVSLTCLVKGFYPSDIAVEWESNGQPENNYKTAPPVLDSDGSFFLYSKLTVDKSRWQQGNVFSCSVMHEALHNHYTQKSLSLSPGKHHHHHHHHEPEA
Chain of human DR4 with death domain deletion on ExpiCHO-S cells (human) (chain, as listed by the source limits assumed, stated change not applied): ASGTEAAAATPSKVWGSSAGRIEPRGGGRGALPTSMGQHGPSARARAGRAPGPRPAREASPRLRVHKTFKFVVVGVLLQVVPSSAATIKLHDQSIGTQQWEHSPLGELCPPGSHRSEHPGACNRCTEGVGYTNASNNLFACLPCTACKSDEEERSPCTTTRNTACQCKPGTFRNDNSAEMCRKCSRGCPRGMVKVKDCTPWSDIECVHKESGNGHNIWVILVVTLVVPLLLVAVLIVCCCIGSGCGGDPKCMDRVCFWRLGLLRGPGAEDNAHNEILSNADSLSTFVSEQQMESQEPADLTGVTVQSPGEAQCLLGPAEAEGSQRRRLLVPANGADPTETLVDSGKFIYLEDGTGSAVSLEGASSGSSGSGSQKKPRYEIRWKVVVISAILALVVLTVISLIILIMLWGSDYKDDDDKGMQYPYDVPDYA

B1: BisG1-FAPα-FERL/DR4-FERR (bispecific antibody, human IgG1, kappa, lambda)
heavy 1: EVQLLESGGGLVQPGGSPRLSCEASGFTFSSYALSWVRQAPGKGLEWVSAISGSGGGRYYADSVKGRFTISRDNSKNTLFLQMNSLRAEDTAVYYCAKEGYSSSGTYWDHWGQGTLVTVSSASTKGPSVFPLAPSSKSTSGGTAALGCLVKDYFPEPVTVSWNSGALTSGVHTFPAVLQSSGLYSLSSVVTVPSSSLGTQTYICNVNHKPSNTKVDKRVEPKSCDKTHTCPPCPAPEFERGPSVFLFPPKPKDTLMISRTPEVTCVVVDVSHEDPEVKFNWYVDGVEVHNAKTKPREEQYNSTYRVVSVLTVLHQDWLNGKEYKCKVSNKALPAPIEKTISKAKGQPREPQVYTLPPSREEMTKNQVSLTCLVKGFYPSDIAVEWESNGQPENNYKTTPPVLDSDGSFLLYSKLTVDKSRWQQGNVFSCSVMHEALHNHYTQKSLSLSPG
light 1: AIQMTQSPSSVSASVGDRVTITCRASQGVSSWLAWYQQKPGRAPKLLIYVASTLQSGVPSRFSGSGSGTDFTLTINSLQPEDFATYYCQQANSFPPTFGQGTRLEMKRTVAAPSVFIFPPSDEQLKSGTASVVCLLNNFYPREAKVQWKVDNALQSGNSQESVTEQDSKDSTYSLSSTLTLSKADYEKHKVYACEVTHQGLSSPVTKSFNRGEC
heavy 2: QVQLQESGPGLVKPSGTLSLTCAVSGGSISSYSWWSWIRQPPGKGLEWIGELYHSGSTNYNPSLKSRVTISVDKSKNQFSLKLRSVTAADTAVYYCVRGVATIDYWGQGTLVTVSSASTKGPSVFPLAPSSKSTSGGTAALGCLVKDYFPEPVTVSWNSGALTSGVHTFPAVLQSSGLYSLSSVVTVPSSSLGTQTYICNVNHKPSNTKVDKRVEPKSCDKTHTCPPCPAPEFERGPSVFLFPPKPKDTLMISRTPEVTCVVVDVSHEDPEVKFNWYVDGVEVHNAKTKPREEQYNSTYRVVSVLTVLHQDWLNGKEYKCKVSNKALPAPIEKTISKAKGQPREPQVYTLPPSREEMTKNQVSLTCLVKGFYPSDIAVEWESNGQPENNYKTTPPVLDSDGSFFLYSRLTVDKSRWQQGNVFSCSVMHEALHNHYTQKSLSLSPG
light 2: QSALTQPPSASGSPGQSVTISCTGTSSDVGGYNFVSWYQQDPGKAPKLLIYEVTKRPSGVPDRFSGSKSGNTASLTVSGLQAEDEADYYCSSYAGSNNVMFGGGTKLTVLGQPKAAPSVTLFPPSSEELQANKATLVCLISDFYPGAVTVAWKADSSPVKAGVETTTPSKQSNNKYAASSYLSLTPEQWKSHRSYSCQVTHEGSTVEKTVAPTECS
notes: Human IgG1 bispecific made by controlled Fab-arm exchange of IgG1-FAPα-FERL and IgG1-DR4-FERR; monovalent for FAPα and for DR4; also called GEN1057
As to B1, the EC50 worked out at 0.86 µg/mL in assay [1]; 0.55 µg/mL in [2]; 0.53 µg/mL in [3]; 1.12 µg/mL in [4]; 0.89 µg/mL in [5]; 1.18 µg/mL in assay [6]. For the same molecule, the concentration for a half-maximal effect (EC50) in assay [7] is 0.72 µg/mL; in assay [8] it was 0.5 µg/mL. Further, the Kd in [9] stood at 0.39 nM; in [10] it was 290 nM. Further, the off-rate (koff) came to 0.00012 s⁻¹ in assay [9] and 0.008 s⁻¹ in assay [10]. Besides, the values for the kon in [9] and in [10] were 320000 M⁻¹ s⁻¹ and 28000 M⁻¹ s⁻¹, respectively.

B2: BisG1-b12-FERL/DR4-FERR (bispecific antibody, human IgG1, kappa, lambda)
heavy 1: QVQLVQSGAEVKKPGASVKVSCQASGYRFSNFVIHWVRQAPGQRFEWMGWINPYNGNKEFSAKFQDRVTFTADTSANTAYMELRSLRSADTAVYYCARVGPYSWDDSPQDNYYMDVWGKGTTVIVSSASTKGPSVFPLAPSSKSTSGGTAALGCLVKDYFPEPVTVSWNSGALTSGVHTFPAVLQSSGLYSLSSVVTVPSSSLGTQTYICNVNHKPSNTKVDKRVEPKSCDKTHTCPPCPAPEFERGPSVFLFPPKPKDTLMISRTPEVTCVVVDVSHEDPEVKFNWYVDGVEVHNAKTKPREEQYNSTYRVVSVLTVLHQDWLNGKEYKCKVSNKALPAPIEKTISKAKGQPREPQVYTLPPSREEMTKNQVSLTCLVKGFYPSDIAVEWESNGQPENNYKTTPPVLDSDGSFLLYSKLTVDKSRWQQGNVFSCSVMHEALHNHYTQKSLSLSPG
light 1: EIVLTQSPGTLSLSPGERATFSCRSSHSIRSRRVAWYQHKPGQAPRLVIHGVSNRASGISDRFSGSGSGTDFTLTITRVEPEDFALYYCQVYGASSYTFGQGTKLERKRTVAAPSVFIFPPSDEQLKSGTASVVCLLNNFYPREAKVQWKVDNALQSGNSQESVTEQDSKDSTYSLSSTLTLSKADYEKHKVYACEVTHQGLSSPVTKSFNRGEC
heavy 2: QVQLQESGPGLVKPSGTLSLTCAVSGGSISSYSWWSWIRQPPGKGLEWIGELYHSGSTNYNPSLKSRVTISVDKSKNQFSLKLRSVTAADTAVYYCVRGVATIDYWGQGTLVTVSSASTKGPSVFPLAPSSKSTSGGTAALGCLVKDYFPEPVTVSWNSGALTSGVHTFPAVLQSSGLYSLSSVVTVPSSSLGTQTYICNVNHKPSNTKVDKRVEPKSCDKTHTCPPCPAPEFERGPSVFLFPPKPKDTLMISRTPEVTCVVVDVSHEDPEVKFNWYVDGVEVHNAKTKPREEQYNSTYRVVSVLTVLHQDWLNGKEYKCKVSNKALPAPIEKTISKAKGQPREPQVYTLPPSREEMTKNQVSLTCLVKGFYPSDIAVEWESNGQPENNYKTTPPVLDSDGSFFLYSRLTVDKSRWQQGNVFSCSVMHEALHNHYTQKSLSLSPG
light 2: QSALTQPPSASGSPGQSVTISCTGTSSDVGGYNFVSWYQQDPGKAPKLLIYEVTKRPSGVPDRFSGSKSGNTASLTVSGLQAEDEADYYCSSYAGSNNVMFGGGTKLTVLGQPKAAPSVTLFPPSSEELQANKATLVCLISDFYPGAVTVAWKADSSPVKAGVETTTPSKQSNNKYAASSYLSLTPEQWKSHRSYSCQVTHEGSTVEKTVAPTECS
notes: Fab-arm exchange of IgG1-b12-FERL and IgG1-DR4-FERR; also called bsIgG1-ctrl-FERLxDR4-FERR
As for B2, the half-maximal effective concentration (EC50) in assay [1] was determined as 0.89 µg/mL; in assay [2], 0.65 µg/mL; in assay [3] it was 0.55 µg/mL; in assay [4], 1.14 µg/mL; in assay [11], 0.92 µg/mL; in [5], 0.78 µg/mL. Further, the figures for the EC50 in assay [6] and in [7] were 1.02 µg/mL and 0.67 µg/mL, respectively. The “Max MFI (at 90 µg/mL)” value in assay [7] was 7840 MFI. Moreover, the dissociation constant Kd in [9] was found to be 0.32 nM; in assay [10], 260 nM. Moreover, the off-rate constant (koff) in assay [9] was 0.0001 s⁻¹; in assay [10], 0.0082 s⁻¹. The association rate constant (kon) is 330000 M⁻¹ s⁻¹ in [9] and 31000 M⁻¹ s⁻¹ in assay [10].

As usually defined, the EC50 is the concentration that produces a half-maximal response. Lower therefore signals higher potency in that assay. A word on the Kd: it is the concentration at which binding is half-saturated. A lower Kd goes with higher affinity. Usually koff stands for the first-order rate constant of dissociation. High values mean fast dissociation, low ones slow dissociation. A word on the kon: it is the rate constant with which the complex forms. A higher kon goes with faster complex formation.
